This experiment concerns the target human carcinoembryonic antigen-related cell adhesion molecule 1 (CEACAM1) (human) (UniProt P13688). Nature of the experiment: cell-based or functional assay.
UniProt P13688, sequence (P13688 35-526): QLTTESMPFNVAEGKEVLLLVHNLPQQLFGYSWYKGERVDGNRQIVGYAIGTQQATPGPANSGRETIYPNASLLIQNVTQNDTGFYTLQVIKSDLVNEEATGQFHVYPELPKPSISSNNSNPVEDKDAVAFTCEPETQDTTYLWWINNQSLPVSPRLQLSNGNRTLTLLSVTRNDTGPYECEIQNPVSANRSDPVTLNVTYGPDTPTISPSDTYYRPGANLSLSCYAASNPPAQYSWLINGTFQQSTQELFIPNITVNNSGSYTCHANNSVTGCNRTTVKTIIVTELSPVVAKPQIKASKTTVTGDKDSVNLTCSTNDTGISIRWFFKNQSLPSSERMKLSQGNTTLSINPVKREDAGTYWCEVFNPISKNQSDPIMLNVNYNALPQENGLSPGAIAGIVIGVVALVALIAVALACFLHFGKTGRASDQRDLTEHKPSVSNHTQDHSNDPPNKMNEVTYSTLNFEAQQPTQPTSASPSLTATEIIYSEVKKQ

B1: CM24, humanized IgG4 anti-CEACAM1 monoclonal antibody (antibody, V domains shown)
VH: QVQLVQSGAEVKKPGASVKVSCKASGYAFTNNLIEWVRQAPGQGLEWIGVINPGSGDTNYNEKFKGRVTMTADKSISTAYMELSRLRSDDTAVYYCARGDYYGGFAVDYWGQGTTVTVSS
VL: DIQMTQSPSSLSASVGDRVTITCRTSQDIGNYLNWYQQKPGKAVKLLIYYTSRLHSGVPSRFSGSGSGTDYTLTISSLQPEDIATYFCQQGKSLPRTFGGGTKVEIKR
Take B1: the % Inhibition of NET-induced migration (vs. isotype control), human NSCLC A549 amounted to 82.7%; the % Inhibition of NET-induced migration (vs. isotype control), human PDAC AsPC-1 is 49.1%; the % Inhibition of NET-induced migration (vs. isotype control), human melanoma SKMEL-28 is 69.5%; the ADP-induced platelet aggregation, mean (ADP + CM24, 500 µg/ml, 30 min pretreat) was 721 AUC. Further, the AUC of cell count, NET-induced migration of AsPC-1 cells (CM24 + NETs, 500 µg/ml) was determined as 30600 AUC; the Mean AUC of cell count, NET-induced migration of A549 cells (CM24 + NETs, 500 µg/ml) was found to be 6580 AUC; the Mean AUC of cell count, NET-induced migration of SKMEL-28 cells (CM24 + NETs, 500 µg/ml) came out at 2950 AUC; the Norm. AUC of cell count, NET-induced migration of A549 cells (CM24 + NETs, 500 µg/ml) was determined as 2170 AUC. Besides, the Norm. AUC of cell count, NET-induced migration of AsPC-1 cells (CM24 + NETs, 500 µg/ml) came to 9410 AUC; the Norm. AUC of cell count, NET-induced migration of SKMEL-28 cells (CM24 + NETs, 500 µg/ml) came out at 1640 AUC; the Percentage platelet aggregation at 30 min, fresh NETs 5 ng/µl, 500 µg/ml CM24 was -5.3%; the Percentage platelet aggregation at 30 min, fresh NETs 10 ng/µl, 500 µg/ml CM24 was determined as 11.5%. Moreover, the Platelet aggregation with fresh NETs 5 ng/µl, mean AUC (% aggregation versus time), 500 µg/ml CM24 worked out at 179 AUC; the Platelet aggregation with fresh NETs 10 ng/µl, mean AUC (% aggregation versus time), 500 µg/ml CM24 amounted to 377 AUC; the Reduction of NET-induced platelet aggregation vs. isotype control, 5 ng/µl fresh NETs was determined as 70%; the Reduction of NET-induced platelet aggregation vs. isotype control, 10 ng/µl fresh NETs was determined as 53%.

The values above are taken from patent US20260167717A1.
